Laboratory results published in US20260125469A1 (Hoffmann-La Roche, published 2026).

Columns and labels:
[1] = molecular target: T1, Human CD3ε stalk-Fc(knob)-Avi/CD3δ stalk-Fc(hole) (human); test: SPR on immobilized human CD3ε/δ after stress, relative to sample kept at -80°C pH 6
T1 construct: Heterodimer of CD3 delta and CD3 epsilon ectodomains fused to human Fc with knob-into-hole; also called human CD3ε/δ; CD3 antigen
Method: In order to assess the effect of the deamidation site removal and its effect on the stability of the antibodies, the optimized anti-CD3 antibodies (in TCB format) were incubated for 14 days at 37° C., pH 7.4 and at 40° C., pH 6 and further analyzed by SPR for their binding capability to human CD3ε/δ. Samples stored at −80° C. pH 6 were used as reference. The reference samples and the samples stressed at 40° C. were in 20 mM His, 140 mM NaCl, pH 6.0, and the samples stressed at 37° C. in PBS, pH 7.4, all at a concentration of 1.0 mg/ml. After the stress period (14 days) samples in PBS were dialyzed back to 20 mM His, 140 mM NaCl, pH 6.0 for further analysis.
All SPR experiments were performed on a Biacore T200 instrument (GE Healthcare) at 25° C. with HBS-P+ (10 mM HEPES, 150 mM NaCl pH 7.4, 0.05% Surfactant P20) as running and dilution buffer. Biotinylated human CD3ε/δ (see Example 3, SEQ ID NOs 41 and 42) as well as biotinylated anti-huIgG (Capture Select, Thermo Scientific, #7103262100) were immobilized on a Series S Sensor Chip SA (GE Healthcare, #29104992), resulting in surface densities of at least 1000 resonance units (RU). Anti-CD3 antibodies with a concentration of 2 μg/ml were injected for 30 s at a flow rate of 5 μl/min, and dissociation was monitored for 120 s. The surface was regenerated by injecting 10 mM glycine pH 1.5 for 60 s. Bulk refractive index differences were corrected by subtracting blank injections and by subtracting the response obtained from a blank control flow cell. For evaluation, the binding response 5 seconds after injection end was taken. To normalize the binding signal, the CD3 binding was divided by the anti-huIgG response (the signal (RU) obtained upon capture of the CD3 antibody on the immobilized anti-huIgG antibody). The relative binding activity was calculated by referencing each temperature stressed sample to the corresponding, non-stressed sample.

[2] = molecular target: T1, Human CD3ε stalk-Fc(knob)-Avi/CD3δ …; test: SPR, TCB captured by anti-PG antibody, antigen as analyte, 25°C
Excerpt: (§1) For affinity measurements, TCB molecules were captured on a C1 sensorchip (GE Healthcare) surface with immobilized anti-Fc(P329G) IgG (an antibody that specifically binds human IgG₁ Fc(P329G); “anti-PG antibody”—see WO 2017/072210, incorporated herein by reference). The experimental setup is schematically depicted in FIG. 3. Capture IgG was coupled to the sensorchip surface by direct immobilization of around 400 resonance units (RU) using the standard amine coupling kit (GE Healthcare Life Sciences).
(§2) To analyze the interaction to CD3, TCB molecules were captured for 80 s at 25 nM with a flow rate of 10 μl/min. […] The dissociation was monitored for 800 s.
(§3) Kinetic constants were derived using the Biacore T200 Evaluation Software (GE Healthcare Life Sciences), to fit rate equations for 1:1 Langmuir binding by numerical integration. The half-life (t_{1/2}) of the interaction was calculated using the formula t_{1/2}=ln2/koff.

[3] = molecular target: T2, Cynomolgus CD3ε stalk-Fc(knob)-Avi/CD3δ stalk-Fc(hole) (cynomolgus); test: as above
T2 construct: also called cynomolgus CD3ε/δ
Excerpt: as §1, §2, §3

| Binder | binding activity [%] after 2 weeks at pH 6.0/40°C [1] [%] | binding activity [%] after 2 weeks at pH 7.4/37°C [1] [%] | Kd [2] [nM] | koff [2] [s⁻¹] | kon [2] [M⁻¹ s⁻¹] | t1/2 [2] [min] | Kd [3] [nM] | koff [3] [s⁻¹] | kon [3] [M⁻¹ s⁻¹] | t1/2 [3] [min] |
| --- | --- | --- | --- | --- | --- | --- | --- | --- | --- | --- |
| TYRP1-TCB with the parental CD3 binder CD3orig (bispecific antibody, human IgG1, kappa, L234A L235A, Same 2+1 format as m1; also called CD3orig in TCB format) heavy 1: not shown heavy 2: QVQLVQSGAEVKKPGASVKVSCKASGFNIKDYFLHWVRQAPGQGLEWMGWINPDNGNTVYAQKFQGRVTMTADTSTSTVYMELSSLRSEDTAVYYCTRRDYTYEKAALDYWGQGTLVTVSSASTKGPSVFPLAPSSKSTSGGTAALGCLVEDYFPEPVTVSWNSGALTSGVHTFPAVLQSSGLYSLSSVVTVPSSSLGTQTYICNVNHKPSNTKVDEKVEPKSCDKTHTCPPCPAPEAAGGPSVFLFPPKPKDTLMISRTPEVTCVVVDVSHEDPEVKFNWYVDGVEVHNAKTKPREEQYNSTYRVVSVLTVLHQDWLNGKEYKCKVSNKALGAPIEKTISKAKGQPREPQVCTLPPSRDELTKNQVSLSCAVKGFYPSDIAVEWESNGQPENNYKTTPPVLDSDGSFFLVSKLTVDKSRWQQGNVFSCSVMHEALHNHYTQKSLSLSP light 1: DIQMTQSPSSLSASVGDRVTITCRASGNIYNYLAWYQQKPGKVPKLLIYDAKTLADGVPSRFSGSGSGTDFTLTISSLQPEDVATYYCQHFWSLPFTFGQGTKLEIKRTVAAPSVFIFPPSDRKLKSGTASVVCLLNNFYPREAKVQWKVDNALQSGNSQESVTEQDSKDSTYSLSSTLTLSKADYEKHKVYACEVTHQGLSSPVTKSFNRGEC light 2: EVQLLESGGGLVQPGGSLRLSCAASGFTFSTYAMNWVRQAPGKGLEWVSRIRSKYNNYATYYADSVKGRFTISRDDSKNTLYLQMNSLRAEDTAVYYCVRHGNFGNSYVSWFAYWGQGTLVTVSSASVAAPSVFIFPPSDEQLKSGTASVVCLLNNFYPREAKVQWKVDNALQSGNSQESVTEQDSKDSTYSLSSTLTLSKADYEKHKVYACEVTHQGLSSPVTKSFNRGEC | 95 | 65 | 6.54 | 0.00338 | 517000 | 3.42 |  |  |  |  |
| TYRP1-TCB with anti-CD3 antibody clone P004.042 (bispecific antibody, human IgG1, kappa, L234A L235A, human IgG1 Fc, knob-into-hole, P329G L234A L235A; also called P004.042 in TCB format) heavy 1: not shown heavy 2: QVQLVQSGAEVKKPGASVKVSCKASGFNIKDYFLHWVRQAPGQGLEWMGWINPDNGNTVYAQKFQGRVTMTADTSTSTVYMELSSLRSEDTAVYYCTRRDYTYEKAALDYWGQGTLVTVSSASTKGPSVFPLAPSSKSTSGGTAALGCLVEDYFPEPVTVSWNSGALTSGVHTFPAVLQSSGLYSLSSVVTVPSSSLGTQTYICNVNHKPSNTKVDEKVEPKSCDKTHTCPPCPAPEAAGGPSVFLFPPKPKDTLMISRTPEVTCVVVDVSHEDPEVKFNWYVDGVEVHNAKTKPREEQYNSTYRVVSVLTVLHQDWLNGKEYKCKVSNKALGAPIEKTISKAKGQPREPQVCTLPPSRDELTKNQVSLSCAVKGFYPSDIAVEWESNGQPENNYKTTPPVLDSDGSFFLVSKLTVDKSRWQQGNVFSCSVMHEALHNHYTQKSLSLSP light 1: DIQMTQSPSSLSASVGDRVTITCRASGNIYNYLAWYQQKPGKVPKLLIYDAKTLADGVPSRFSGSGSGTDFTLTISSLQPEDVATYYCQHFWSLPFTFGQGTKLEIKRTVAAPSVFIFPPSDRKLKSGTASVVCLLNNFYPREAKVQWKVDNALQSGNSQESVTEQDSKDSTYSLSSTLTLSKADYEKHKVYACEVTHQGLSSPVTKSFNRGEC light 2: EVQLLESGGGLVQPGGSLRLSCAASGFQFDNYAMNWVRQAPGKGLEWVSRIRTKYNEYATYYADSVKGRFTISRDDSKNTLYLQMNSLRAEDTAVYYCVRASNFPQSYVSYFGYWGQGTLVTVSSASVAAPSVFIFPPSDEQLKSGTASVVCLLNNFYPREAKVQWKVDNALQSGNSQESVTEQDSKDSTYSLSSTLTLSKADYEKHKVYACEVTHQGLSSPVTKSFNRGEC | 98 | 98 | 1.54 | 0.00295 | 1.92e+06 | 3.92 | 0.71 | 0.00272 | 3.85e+06 | 4.25 |
| TYRP1-TCB with anti-CD3 antibody clone P021.045 (bispecific antibody, human IgG1, kappa, L234A L235A, human IgG1 Fc, knob-into-hole, P329G L234A L235A; also called P021.045 in TCB format) heavy 1: not shown heavy 2: QVQLVQSGAEVKKPGASVKVSCKASGFNIKDYFLHWVRQAPGQGLEWMGWINPDNGNTVYAQKFQGRVTMTADTSTSTVYMELSSLRSEDTAVYYCTRRDYTYEKAALDYWGQGTLVTVSSASTKGPSVFPLAPSSKSTSGGTAALGCLVEDYFPEPVTVSWNSGALTSGVHTFPAVLQSSGLYSLSSVVTVPSSSLGTQTYICNVNHKPSNTKVDEKVEPKSCDKTHTCPPCPAPEAAGGPSVFLFPPKPKDTLMISRTPEVTCVVVDVSHEDPEVKFNWYVDGVEVHNAKTKPREEQYNSTYRVVSVLTVLHQDWLNGKEYKCKVSNKALGAPIEKTISKAKGQPREPQVCTLPPSRDELTKNQVSLSCAVKGFYPSDIAVEWESNGQPENNYKTTPPVLDSDGSFFLVSKLTVDKSRWQQGNVFSCSVMHEALHNHYTQKSLSLSP light 1: DIQMTQSPSSLSASVGDRVTITCRASGNIYNYLAWYQQKPGKVPKLLIYDAKTLADGVPSRFSGSGSGTDFTLTISSLQPEDVATYYCQHFWSLPFTFGQGTKLEIKRTVAAPSVFIFPPSDRKLKSGTASVVCLLNNFYPREAKVQWKVDNALQSGNSQESVTEQDSKDSTYSLSSTLTLSKADYEKHKVYACEVTHQGLSSPVTKSFNRGEC light 2: EVQLLESGGGLVQPGGSLRLSCAASGFTFSSYAMNWVRQAPGKGLEWVSRIRSKYNNYATYYADSVKGRFTISRDDSKNTLYLQMNSLRAEDTAVYYCVRASNFPSSYVSYFAYWGQGTLVTVSSASVAAPSVFIFPPSDEQLKSGTASVVCLLNNFYPREAKVQWKVDNALQSGNSQESVTEQDSKDSTYSLSSTLTLSKADYEKHKVYACEVTHQGLSSPVTKSFNRGEC | 99 | 95 | 0.43 | 0.00133 | 3.1e+06 | 8.69 | 0.2 | 0.000967 | 4.88e+06 | 11.9 |
| TYRP1-TCB with anti-CD3 antibody clone P035.064 (bispecific antibody, human IgG1, kappa, L234A L235A, human IgG1 Fc, knob-into-hole, P329G L234A L235A; also called P035.064 in TCB format) heavy 1: not shown heavy 2: QVQLVQSGAEVKKPGASVKVSCKASGFNIKDYFLHWVRQAPGQGLEWMGWINPDNGNTVYAQKFQGRVTMTADTSTSTVYMELSSLRSEDTAVYYCTRRDYTYEKAALDYWGQGTLVTVSSASTKGPSVFPLAPSSKSTSGGTAALGCLVEDYFPEPVTVSWNSGALTSGVHTFPAVLQSSGLYSLSSVVTVPSSSLGTQTYICNVNHKPSNTKVDEKVEPKSCDKTHTCPPCPAPEAAGGPSVFLFPPKPKDTLMISRTPEVTCVVVDVSHEDPEVKFNWYVDGVEVHNAKTKPREEQYNSTYRVVSVLTVLHQDWLNGKEYKCKVSNKALGAPIEKTISKAKGQPREPQVCTLPPSRDELTKNQVSLSCAVKGFYPSDIAVEWESNGQPENNYKTTPPVLDSDGSFFLVSKLTVDKSRWQQGNVFSCSVMHEALHNHYTQKSLSLSP light 1: DIQMTQSPSSLSASVGDRVTITCRASGNIYNYLAWYQQKPGKVPKLLIYDAKTLADGVPSRFSGSGSGTDFTLTISSLQPEDVATYYCQHFWSLPFTFGQGTKLEIKRTVAAPSVFIFPPSDRKLKSGTASVVCLLNNFYPREAKVQWKVDNALQSGNSQESVTEQDSKDSTYSLSSTLTLSKADYEKHKVYACEVTHQGLSSPVTKSFNRGEC light 2: EVQLLESGGGLVQPGGSLRLSCAASGFDFDNYAMNWVRQAPGKGLEWVSRIRSKHNGYATYYADSVKGRFTISRDDSKNTLYLQMNSLRAEDTAVYYCVRASNFPSSYVSYFGYWGQGTLVTVSSASVAAPSVFIFPPSDEQLKSGTASVVCLLNNFYPREAKVQWKVDNALQSGNSQESVTEQDSKDSTYSLSSTLTLSKADYEKHKVYACEVTHQGLSSPVTKSFNRGEC | 97 | 96 | 0.63 | 0.00115 | 1.83e+06 | 10 | 0.38 | 0.000921 | 2.44e+06 | 12.5 |
